Earlier results in US20120225099A1, “COMPOSITIONS FOR AND METHODS OF […] CYCLASE C” (Thomas Jefferson University, priority 2009, published 2012).
Ends that are not written are not given here.

Biological target: guanylate cyclase (ST receptors) (Homo sapiens, UniProt P25092)
Settings: relative to native ST; about

Sequence of guanylate cyclase (ST receptors) (P25092 24-1073): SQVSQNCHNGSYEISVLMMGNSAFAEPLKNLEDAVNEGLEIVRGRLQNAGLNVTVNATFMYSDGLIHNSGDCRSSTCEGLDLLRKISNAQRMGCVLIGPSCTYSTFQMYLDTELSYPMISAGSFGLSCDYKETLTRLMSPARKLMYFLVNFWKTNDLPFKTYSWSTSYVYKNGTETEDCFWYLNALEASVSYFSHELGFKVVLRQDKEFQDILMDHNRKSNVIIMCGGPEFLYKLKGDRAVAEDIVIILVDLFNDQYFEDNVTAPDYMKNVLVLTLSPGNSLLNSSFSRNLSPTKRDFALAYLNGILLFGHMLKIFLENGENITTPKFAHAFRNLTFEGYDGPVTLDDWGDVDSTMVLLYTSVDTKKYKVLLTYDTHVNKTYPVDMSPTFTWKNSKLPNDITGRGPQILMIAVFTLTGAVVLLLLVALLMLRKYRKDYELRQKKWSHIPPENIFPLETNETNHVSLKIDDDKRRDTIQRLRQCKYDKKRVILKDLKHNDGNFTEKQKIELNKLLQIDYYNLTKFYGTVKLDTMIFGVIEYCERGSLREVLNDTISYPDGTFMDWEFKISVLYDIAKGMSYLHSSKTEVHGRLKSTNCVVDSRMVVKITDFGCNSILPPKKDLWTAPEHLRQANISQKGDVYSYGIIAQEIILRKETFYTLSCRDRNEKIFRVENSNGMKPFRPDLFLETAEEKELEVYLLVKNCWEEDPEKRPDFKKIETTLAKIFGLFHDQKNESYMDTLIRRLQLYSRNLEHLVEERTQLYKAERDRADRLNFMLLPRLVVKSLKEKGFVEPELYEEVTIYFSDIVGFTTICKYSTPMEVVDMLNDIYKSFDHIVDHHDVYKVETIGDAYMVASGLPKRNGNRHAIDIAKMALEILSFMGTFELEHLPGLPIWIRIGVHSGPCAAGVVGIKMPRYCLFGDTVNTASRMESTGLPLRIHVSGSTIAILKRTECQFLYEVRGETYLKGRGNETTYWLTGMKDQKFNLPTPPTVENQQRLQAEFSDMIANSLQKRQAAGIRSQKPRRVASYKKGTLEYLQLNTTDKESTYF

## PNTCEICAYAACTGC (cysteine pairing not given here) [Guanylin, 15 amino acid peptide identified in mammalian intestine; native GCC ligand]
  activates guanylate cyclase at a level less than native ST: 10- to 100 fold
